Results taken from publication PMC7952403 (Nature Communications, 2021).

B1: STE73-6C1 scFv-Fc (scFv, V domains shown)
VH: QVQLVQSGGGVVQPGRSLRLSCAASGFTFSSYAMHWVRQAPGKGLEWVAVISYDGSNKYYADSVKGRFTISRDNSKNTLYLQMNSLRAEDTAVYYCARSYVGGMDVWGQGTTVTVSS
VL: QLVLTQSPSVSGAPGQSVTISCTGTDSNIGAGYNVHWYQQLPGAAPKLIISYTDNRPSGVPDRFSGSKSGTSASLAITGLQAEDEADYYCQSSDRTLVGSLFGTGTKVTVL
notes: also called scFv-hFc; source: Expi293F, transient transfection, purified (Protein A)
B2: STE73-6C1 IgG (antibody, V domains shown)
VH: QVQLVQSGGGVVQPGRSLRLSCAASGFTFSSYAMHWVRQAPGKGLEWVAVISYDGSNKYYADSVKGRFTISRDNSKNTLYLQMNSLRAEDTAVYYCARSYVGGMDVWGQGTTVTVSS
VL: QLVLTQSPSVSGAPGQSVTISCTGTDSNIGAGYNVHWYQQLPGAAPKLIISYTDNRPSGVPDRFSGSKSGTSASLAITGLQAEDEADYYCQSSDRTLVGSLFGTGTKVTVL
notes: source: Expi293F, transfected, purified (Protein A); copies: 2 + 2
B3: STE73-9G3 IgG (antibody, V domains shown)
VH: QVQLQESGGGLVQPGGSLRLSCAASGFTFSSYAMSWVRQAPGKGLEWVSAISGSGGSTYYADSVKGRFTISRDNSKNTLYLQMNSLRAEDTAVYYCARDLVLGSGSSNDWGRGTLVTVSS
VL: QPVLTQPPSVSGAPGQSVTISCTGTDSNIGAGYNVHWYQQLPGAAPKLIISYTDNRPSGVPDRFSGSKSGTSASLAITGLQAEDEADYYCQSSDRTLVGSLFGTGTKVTVL
notes: as for B2
B4: STE73-9G3 scFv-Fc (scFv, V domains shown)
VH: QVQLQESGGGLVQPGGSLRLSCAASGFTFSSYAMSWVRQAPGKGLEWVSAISGSGGSTYYADSVKGRFTISRDNSKNTLYLQMNSLRAEDTAVYYCARDLVLGSGSSNDWGRGTLVTVSS
VL: QPVLTQPPSVSGAPGQSVTISCTGTDSNIGAGYNVHWYQQLPGAAPKLIISYTDNRPSGVPDRFSGSKSGTSASLAITGLQAEDEADYYCQSSDRTLVGSLFGTGTKVTVL
notes: as for B1
B5: STE72-1G5 scFv-Fc (scFv, V domains shown)
VH: QVQLVQSGAEVKKPGASVKVSCKASGGTFSSYAISWVRQAPGQGLEWMGGIIPIFGTANYAQKFQGRVTITADESTSTAYMELSSLRSEDTAVYYCAVGGVQLWLTYWGQGTLVTVSS
VL: ETTLTQSPGALSLSPGERATLSCRVSQSLSSNSLAWYQQKPGQAPRLLIYDTSIRATGIPDRFSGSGSGTDFTLTISRLEPEDFAVYYCHKYGSWPRTFGQGTKVEV
notes: as for B1
B6: STE73-2G8 scFv-Fc (scFv, V domains shown)
VH: QVQLVQSGGGLVKPGGSLRLSCAASGITVSSNYMSWVRQAPGKGLEWVSILYSGGTTFYTDSVKGRFTISRDNSKNTLHLQMNSLRAEDTAVYYCARWSGTYYDYWGQGTLVTVSS
VL: SSELTQDPAVSVALGQTVRITCQGDSLRSYYASWYQQKPGQAPVLVIYGKNNRPSGIPDRFSGSSSGNTASLTITGAQAEDEADYYCNSRDSTNDPVLFGAGTKLTVL
notes: as for B1
B7: STE73-2G8 IgG (antibody, V domains shown)
VH: QVQLVQSGGGLVKPGGSLRLSCAASGITVSSNYMSWVRQAPGKGLEWVSILYSGGTTFYTDSVKGRFTISRDNSKNTLHLQMNSLRAEDTAVYYCARWSGTYYDYWGQGTLVTVSS
VL: SSELTQDPAVSVALGQTVRITCQGDSLRSYYASWYQQKPGQAPVLVIYGKNNRPSGIPDRFSGSSSGNTASLTITGAQAEDEADYYCNSRDSTNDPVLFGAGTKLTVL
notes: as for B2
B8: STE73-2E9 scFv-Fc (scFv, V domains shown)
VH: QVQLVQSGAEVKKPGASVKVSCKASGYTFTSYGISWVRQAPGQGLEWMGWISAYNGNTNYAQKLQGRVTMTTDTSTSTAYMELRSLRSDDTAVYYCARGKFDYWGQGTLVTVSS
VL: QSVLTQPPSVSEAPSQRVTISCSGSSSNIGNNAVNWYQQLPGKAPKLLIYYDDVLPSGVSDRFSGSKSGTSASLAISGLQSGDEADYYCAAWDDSLSGVVFGGGTKLTVL
notes: as for B1
B9: STE72-8E1 scFv-Fc (scFv, V domains shown)
VH: QVQLQEWGPGLVQPSETLSLTCTVSGGSISSGGYYWSWIRQHPGKGLEWIGRIYPSGSTNYNPSLKSRVTMSVDTSENQFSLKLSSVTAADTAVYYCARGGPKRSGSPFDVWGQGTMVTVSS
VL: EVVMTQSPSTLSASVGDRVTITCRASQTFGPWLAWYQQKPGQAPKLLIYMASELESGVPSRFSGSGSGTEFTLSISSLQPDDFATYYCQQYNTFSPWTFGQGTKVDIK
notes: as for B1
B10: STE70-1E12 scFv-Fc (scFv, V domains shown)
VH: QMQLVQSGAEVKKPGASVKVSCKASGYTFTGYYMHWVRQAPGQGLEWMGRINPNSGGTNYAQKFQGRVTMTRDTSTSTAYMELSRLRSDDTAVYYCVRDGYNFNNWFDPWGQGTLVTVSS
VL: NFMLTQPHSVSGSPGETITISCTGSGGSIASNYVQWYRQRPGSAPTIVIYEDTQRPSGVPDRFSGSIDSSSNSASLTISGLKTEDEADYYCQSSESTNHVMFGGGSKLTVL
notes: as for B1
B11: STE70-1E12 IgG (antibody, V domains shown)
VH: QMQLVQSGAEVKKPGASVKVSCKASGYTFTGYYMHWVRQAPGQGLEWMGRINPNSGGTNYAQKFQGRVTMTRDTSTSTAYMELSRLRSDDTAVYYCVRDGYNFNNWFDPWGQGTLVTVSS
VL: NFMLTQPHSVSGSPGETITISCTGSGGSIASNYVQWYRQRPGSAPTIVIYEDTQRPSGVPDRFSGSIDSSSNSASLTISGLKTEDEADYYCQSSESTNHVMFGGGSKLTVL
notes: as for B2
B12: STE72-1B6 scFv-Fc (scFv, V domains shown)
VH: QVKLVQSGGGLVQPGGSLRLSCAASGFTFSSYAMSWVRQAPGKGLEWVSGISGSGGSTYYADSVKGRFTISRDNSKNTLYLQVNSLRAEDTAVYYCAKAPYGDFRGLWYFDYWGQGTLVTVSS
VL: DIVMTQSPFSVSASVGDRVTISCRASQDIRSWLAWYQQKPGKAPQLLIYDASSLQSGVPSRFSGSGSGTDFTLTISSLQPEDFATYYCQQADSVPLTFGGGTKVEIQ
notes: as for B1
B13: STE72-1B6 IgG (antibody, V domains shown)
VH: QVKLVQSGGGLVQPGGSLRLSCAASGFTFSSYAMSWVRQAPGKGLEWVSGISGSGGSTYYADSVKGRFTISRDNSKNTLYLQVNSLRAEDTAVYYCAKAPYGDFRGLWYFDYWGQGTLVTVSS
VL: DIVMTQSPFSVSASVGDRVTISCRASQDIRSWLAWYQQKPGKAPQLLIYDASSLQSGVPSRFSGSGSGTDFTLTISSLQPEDFATYYCQQADSVPLTFGGGTKVEIQ
notes: as for B2
B14: STE73-2B2 scFv-Fc (scFv, V domains shown)
VH: QVQLVQSGAEVKKPGASVKVSCKASGYTFTGYYMHWVRQAPGQGLEWMGWINPNSGGTNYAQKFQGRVTITRDTSASTAYMELSSLRSEDTAVYYCARVSGWYFGAFDIWGQGTMVTVSS
VL: LPVLTQPHSLSESPGKTVNISCTGSSGSIASNYVQWYQQRPGSAPTTVIYEDSHRPSGVPDRFSGSIDSSSNSASLSISGLKTEDEADYYCQSYDSSNNQWVFGGGTKLTVL
notes: as for B1
B15: STE72-4C10 scFv-Fc (scFv, V domains shown)
VH: EVQLQESGGGVVQPGRSLRLSCAASGFTFSSYAMHWVRQAPGKGLEWVAVISYDGSNKYYADSVKGRFTISRDNSKNTLYLQMNSLRAEDTAVYYCAREYSSSWYGLGAFDIWGQGTMVTVSS
VL: DIRLTQSPSSLSASVGDRVTITCRASQNIHYYLNWYQQKPGKAPSLLVYGASSLQSGVPSRFSGSGSGTEYTLTISSLQPEDFATYFCQQSFKSPATFGQGTKVDIK
notes: as for B1
B16: STE73-2C2 scFv-Fc (scFv, V domains shown)
VH: QVQLVESGGGLVQPGGSLRLSCAASGITVSSNYMSWVRQAPGKGLEWVSVIYSGGSTFYADSVKGRFTISRDNSKNTLYLQMNSLRAEDTGVYYCARGHDNLDYWGQGTLVTVSS
VL: LPVLTQPHSVSESPGKTVIISCTGSSDSIASNYVQWYQQRPGSAPTTVIYEDNKRPSGVPDRFSGSTDSSSNSASLTISGLKTEDEAEYYCQSYDSNNHWVFGGGTKLTVL
notes: as for B1
B17: STE72-4E12 scFv-Fc (scFv, V domains shown)
VH: QVQLVQSGAEVKKPGASVKVSCKASGYTFTSYYMHWVRQAPGQGLEWMGIINPSGGSTSYAQKFQGRVTMTRDTSTSTVYMELSSLRSEDTAVYYCARDLSGGLDYWGQGTLVTVSS
VL: ETTLTQSPATLSVSPGERVTLACRAGQTISSKLAWYRQKPGQAPSLLIYDASTRATGVPARFSGSGSGTEFTLTISSLQSEDFAVYYCQQYSDWPPTFGQGTKVEIK
notes: as for B1
B18: STE72-4E12 IgG (antibody, V domains shown)
VH: QVQLVQSGAEVKKPGASVKVSCKASGYTFTSYYMHWVRQAPGQGLEWMGIINPSGGSTSYAQKFQGRVTMTRDTSTSTVYMELSSLRSEDTAVYYCARDLSGGLDYWGQGTLVTVSS
VL: ETTLTQSPATLSVSPGERVTLACRAGQTISSKLAWYRQKPGQAPSLLIYDASTRATGVPARFSGSGSGTEFTLTISSLQSEDFAVYYCQQYSDWPPTFGQGTKVEIK
notes: as for B2
B19: STE72-2G4 scFv-Fc (scFv, V domains shown)
VH: QVQLVQSGAEVKKPGASVKVSCKASGYTFTSYGISWVRQAPGQGLEWMGWISAYNGNTNYAQKLQGRVTMTTDTSTSTAYMELRSLRSDDTAVYYCARFFYDSSGYSTDYWGQGTLVTVSS
VL: ETTLTQSPAFMSVTPGDRAILSCRASQSVDSHLAWYHQKPGQPPRLLIYGASTRATGIPARFSGSRSGTEFTLTISGLQSEDLGVYYCQQYASWPPGYNFGQGTKLEIK
notes: as for B1
B20: STE73-6C8 scFv-Fc (scFv, V domains shown)
VH: QVQLQQSGAEVKKPGSSVKVSCKASGGTFSSYAISWVRQAPGQGLEWMGRIIPILGIANYAQKFQGRVTITADKSTSTAYMELSSLRSEDTAVYYCARSIAALNWFDPWGQGTLVTVSS
VL: NFMLTQPHSVSESPGKTVTIPCTGSRGSIANNYVQWYRQRPGRAPTTVIFEDNQRPSGVPDRFSGSIDRSSNSASLTISGLETEDEADYYCQSYDGSNVIFGGGTKLTVL
notes: as for B1
B21: STE73-6C8 IgG (antibody, V domains shown)
VH: QVQLQQSGAEVKKPGSSVKVSCKASGGTFSSYAISWVRQAPGQGLEWMGRIIPILGIANYAQKFQGRVTITADKSTSTAYMELSSLRSEDTAVYYCARSIAALNWFDPWGQGTLVTVSS
VL: NFMLTQPHSVSESPGKTVTIPCTGSRGSIANNYVQWYRQRPGRAPTTVIFEDNQRPSGVPDRFSGSIDRSSNSASLTISGLETEDEADYYCQSYDGSNVIFGGGTKLTVL
notes: as for B2

Tests used:
[1] = molecular target: T1, SARS-CoV-2 RBD-SD1 with murine IgG2a Fc part, produced in High Five cells (SARS-CoV-2, UniProt P0DTC2); test: ELISA; conditions: both partners purified
T1 construct: source: High Five insect cells, transient transfection, purified (Protein A)

[2] = molecular target: T1, SARS-CoV-2 RBD-SD1 with murine IgG2a Fc …; test: flow cytometry on cells; conditions: both partners purified

| Binder | EC50 [1] [nM] | IC50 [2] [nM] |
| --- | --- | --- |
| B1 | 0.6 | 4.1 |
| B2 | 14.1 | – |
| B3 | 0.4 | – |
| B4 | 0.4 | 3.4 |
| B5 | 2.8 | – |
| B6 | 0.2 | 2.8 |
| B7 | 0.8 | – |
| B8 | – | 3.4 |
| B9 | 0.4 | 5.6 |
| B10 | 0.3 | 3.2 |
| B11 | 0.3 | – |
| B12 | 0.5 | 4.8 |
| B13 | 1.1 | – |
| B14 | 0.2 | 1.7 |
| B15 | 0.5 | 3.5 |
| B16 | 3.1 | 3 |
| B17 | 1.5 | 3 |
| B18 | 1.6 | – |
| B19 | 0.2 | 3.7 |
| B20 | 1.1 | 5.4 |
| B21 | 2.9 | – |
